In IntAct's records for PubMed 12084722:

target: apoa1_human APOA1 (UniProt P02647)
Sequence (P02647 whole entry): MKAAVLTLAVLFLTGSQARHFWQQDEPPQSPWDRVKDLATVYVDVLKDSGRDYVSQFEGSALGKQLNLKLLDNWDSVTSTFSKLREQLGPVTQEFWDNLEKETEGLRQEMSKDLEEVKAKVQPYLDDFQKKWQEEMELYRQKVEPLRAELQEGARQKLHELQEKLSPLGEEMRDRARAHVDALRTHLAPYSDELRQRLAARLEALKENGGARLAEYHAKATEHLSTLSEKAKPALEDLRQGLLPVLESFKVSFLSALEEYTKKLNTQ

| Substance | effect of a mutation on the interaction |
| --- | --- |
| Phospholipid-transporting ATPase ABCA1 (Homo sapiens), O95477 Q597R | disrupting interaction strength |
| Phospholipid-transporting ATPase ABCA1 (Homo sapiens), O95477 R587W | disrupting interaction strength |
| Phospholipid-transporting ATPase ABCA1 (Homo sapiens), O95477 S1506L | disrupting interaction strength |

Second part, the substance after the results:

| effect of a mutation on the interaction | Substance |
| --- | --- |
| disrupting interaction strength | Phospholipid-transporting ATPase ABCA1 (Homo sapiens), O95477 C1477R |
| increasing interaction strength | Phospholipid-transporting ATPase ABCA1 (Homo sapiens), O95477 W590S |
